Where “and” joins values, the source holds several entries; their conditions need not be identical. Equal entries are not always repeated.
T1: human B7-H4 expressed on cells (human, UniProt Q7Z7D3 25-282)
T1 construct: the cell line is named under assay or readout; also called full length human B7-H4 on HEK293 cells; 293T.hB7-H4
T1 sequence: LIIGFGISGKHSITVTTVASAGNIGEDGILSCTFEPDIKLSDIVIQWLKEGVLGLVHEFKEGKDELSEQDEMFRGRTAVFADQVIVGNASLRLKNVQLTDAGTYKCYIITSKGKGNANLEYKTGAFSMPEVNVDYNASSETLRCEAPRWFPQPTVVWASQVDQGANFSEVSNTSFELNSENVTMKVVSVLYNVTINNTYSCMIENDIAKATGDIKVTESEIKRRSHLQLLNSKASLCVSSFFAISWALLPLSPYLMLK

T2: mouse B7-H4ECD mIgG2a Fc fusion protein (mouse, UniProt Q7TSP5 25-257, limits assumed)
T2 construct: also called mouse B7-H4-mIg fusion protein; Mouse B7-H4-mouse-Ig Fusion Protein; not shown: mouse IgG2a Fc
T2 sequence: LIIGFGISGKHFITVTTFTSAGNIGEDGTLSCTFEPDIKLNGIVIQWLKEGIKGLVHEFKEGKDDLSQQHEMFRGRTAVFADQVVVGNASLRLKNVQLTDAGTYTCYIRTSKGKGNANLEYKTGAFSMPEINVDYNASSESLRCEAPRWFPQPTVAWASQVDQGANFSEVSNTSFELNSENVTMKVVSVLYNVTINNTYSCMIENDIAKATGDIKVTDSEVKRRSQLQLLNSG

T3: B7-H4ECD his-tagged protein (Sinobiologics) (human, UniProt Q7Z7D3 25-259)
T3 construct: Bought protein; Result paragraph calls the target human B7-H4; also called B7-H4 extracellular domain; not shown: his tag
T3 sequence: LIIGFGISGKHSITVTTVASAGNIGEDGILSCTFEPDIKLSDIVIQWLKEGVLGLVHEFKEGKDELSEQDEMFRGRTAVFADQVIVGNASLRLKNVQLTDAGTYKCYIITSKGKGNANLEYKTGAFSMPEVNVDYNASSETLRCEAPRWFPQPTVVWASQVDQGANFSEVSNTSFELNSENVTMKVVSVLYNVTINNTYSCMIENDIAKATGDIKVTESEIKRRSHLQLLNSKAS


Tests used:
B7-H4-Ig fusion protein = biological target: T4, B7-H4-Ig fusion protein (human); assay: competition ELISA on B7-H4-Ig-coated plate, Plate 1; competitor biotinylated mouse 6H3 (5 ng/ml)
T4 construct: also called human B7-H4 Ig
Description: A 12-point, 3-fold dilution series of 14 humanized 6H3 antibody variants was prepared ranging from 100 μg/ml to 0.5 ng/ml. Dilutions were prepared in assay diluent containing biotinylated mouse anti-human B7-H4 6H3 (SEQ ID NOS:3 and 5 for light chain variable region and heavy chain variable region respectively) at 5 ng/ml. Antibodies were allowed to bind to B7-H4-Ig-coated assay plates (200 ng/well) for 1 hour at room temperature and detected with streptavidin HRP.

[1] = biological target: T1, human B7-H4 expressed on cells; assay: flow cytometry on HEK293.hB7-H4 transfectants, one-site specific binding fit
Description: For each staining, 0.2 million HEK293.hB7-H4 transfectants were resuspended in 100 μl flow cytometry buffer (PBS+2% FBS). A serial dilution of chimeric 6H3 and 14 humanized variants of 0, 0.1 ng, 0.3 ng, 1 ng, 3 ng, 10 ng, 30 ng, 100 ng, 300 ng, 1 μg, 3 μg and 10 μg were added to the cells and incubated at 4° C. for 30 min. Cells were then washed twice with 2 ml flow cytometry buffer, and resuspended in 100 μl flow cytometry buffer. 1 μl anti-hIg PE secondary antibody (Biolegend) was added and incubated with the cells for 15 mins Samples were then washed and resuspended in 100 μl flow cytometry buffer. Flow Cytometry data was acquired using BD Canto (BD Biosciences) in plate format and analyzed by FlowJo software. Staining data (MFI) was then input into Prism 5 software to generate binding curve. Curve-fit using one-site specific binding algorithm calculates individual KD for each variant.

[2] = biological target: T2, mouse B7-H4ECD mIgG2a Fc fusion protein; assay: ELISA, mouse B7-H4ECD mIgG2a Fc fusion coated
Description: 100 μg/ml mouse B7-H4ECD mIgG2a Fc fusion protein diluted in PBS was immobilized on flat bottom 96 well plate (Costar 9017) overnight at 4° C. Plates were washed twice with PBS+0.1% PS-20 and blocked with 200 μl/well PBS 10% FBS at RT for 1 hr. 100 μl chimeric 6H3 and 14 selected 6H3 humanized variants diluted in PBS 10% FBS were added to each well and incubated at RT for 1 hr. Plates were washed three times and 100 μl 1 μg/ml anti-human Ig HRP (Sigma) was added to each well and incubated at RT for 1 hr. Plates were washed six times and 100 μl TMB substrate (SurModics) was added to each well for 5-15 mins 100 μl stop solution (0.1M Sulfuric acid) was added to each well. Plates were read at Absorbance 450 nm by PerkinElmer EnVision 2104 Multilabel Reader.

[3] = biological target: T3, B7-H4ECD his-tagged protein …; assay: ELISA, B7-H4ECD his-tagged protein coated
Description: 100 μl 1 μg/ml B7-H4ECD his-tagged protein (Sinobiologics) diluted in PBS was immobilized on flat bottom 96 well plate (Costar 9017) overnight at 4° C. Plates were washed twice with PBS+0.1% PS-20 and blocked with 200 μl/well PBS 10% FBS at RT for 1 hr. 100 μl chimeric 6H3 and 14 selected 6H3 humanized variants diluted in PBS 10% FBS were added to each well and incubated at RT for 1 hr. Plates were washed three times and 100 μl 1 μg/ml anti-human Ig HRP (Sigma) was added to each well and incubated at RT for 1 hr. Plates were washed six times and 100 μl TMB substrate (SurModics) was added to each well for 5-15 mins 100 μl stop solution (0.1M Sulfuric acid) was added to each well. Plates were read at Absorbance 450 nm by PerkinElmer EnVision 2104 Multilabel Reader.

[4] = biological target: T1, human B7-H4 expressed on cells; assay: saturation binding, flow cytometry on 624mel/B7-H4 cells, biotinylated mAb, azide-treated cells; unit not given
Description: A saturation binding experiment was carried out on 624mel/B7-H4 cells using the chimeric 6H3 mAb and humanized variants of 6H3. Briefly, 50,000 cells were pretreated with 0.1% azide on ice for 30 minutes to inhibit B7-H4 internalization then stained for 30 minutes with biotinylated anti-B7-H4 mAbs. The mAbs were diluted in a 12-point, 3-fold dilution series ranging from 200 μg/ml down to 1 ng/ml. Cell were stained with streptavidin PE for 10 minutes, washed, fixed and analyzed by flow cytometry.
FIGS. 35A-35B are binding curves for the raw (FIG. 35A) and background subtracted data (FIG. 35B). […] The subtracted values were used to determine the Kd and Bmax. The antibodies appear to fall into two groups based on Kd values (Table 10).

EC50 (B7-H4-Ig fusion protein)	Bmax(MFI) [1] [MFI]	Kd [1] [nM]	EC50 [2] [nM]	EC50 [3] [nM]	Bmax [4]	Binder
2.95 µg/mL and 19.7 nM	580	5.2	0.08	1.16	–	humanized 6H3 variant 4 (antibody, V domains shown, also called V4; Variant 4 (antibody)) VH: EVQLVQSGAEMKKPGASVKVSCKASGYTFTDYYMNWVRQAPGQSLEWIGVINPYNGDTTYNQKFQGRVTVTVDKSATTAYMELSSLRSEDTAVYYCARYPESTYWGQGTLVTVSS VL: DVVMTQSPLSLPVTLGQPASISCRSSQSLVHINGNTYLHWYQQRPGQSPRVLIYKVSNRFSGVPDRFSGSGSGTDFTLKISRVEAEDVGVYFCSQSTHVPLTFGGGTKVEIK
2.63 µg/mL and 17.5 nM	513	6.5	0.11	1.07	6080	humanized 6H3 variant 7 (antibody, V domains shown, also called V7; 6H3 V7) VH: EVQLVQSGAEMKKPGASVKVSCKASGYTFTDYYMNWVRQAPGQSLEWIGVINPYNGDTTYNQKFQGRVTVTVDKSATTAYMELSSLRSEDTAVYYCARYPESTYWGQGTLVTVSS VL: DVVMTQSPLSLPVTLGQPASISCRSSQSLVHINGNTYLHWYLQRPGQSPKVLIYKVSNRFSGVPDRFSGSGSGTDFTLKISRVEAEDVGVYFCSQSTHVPLTFGGGTKVEIK
2.53 µg/mL and 16.9 nM	526	5	0.13	1.64	6420	humanized 6H3 variant 6 (antibody, V domains shown, also called V6; Variant 6 (antibody)) VH: EVQLVQSGAEMKKPGASVKVSCKASGYTFTDYYMNWVRQAPGQSLEWMGVINPYNGDTTYNQKFQGRVTVAVDKSATTAYMELSSLRSEDTAVYYCARYPESTYWGQGTLVTVSS VL: DVVMTQSPLSLPVTLGQPASISCRSSQSLVHINGNTYLHWYLQRPGQSPKVLIYKVSNRFSGVPDRFSGSGSGTDFTLKISRVEAEDVGVYFCSQSTHVPLTFGGGTKVEIK
3.62 µg/mL and 24.2 nM	646	4.2	0.05	0.95	–	humanized 6H3 variant 5 (antibody, V domains shown, also called V5; Variant 5 (antibody)) VH: EVQLVQSGAEVKKPGASVKVSCKASGYTFTDYYMNWVRQAPGQGLEWIGIINPYNGDTSYNQKFKGRVTLTVDKSTSTAYMELSSLRSEDTAVYYCARYPESTYWGQGTLVTVSS VL: DVVMTQSPLSLPVTLGQPASISCRSSQSLVHINGNTYLHWYLQRPGQSPKVLIYKVSNRFSGVPDRFSGSGSGTDFTLKISRVEAEDVGVYFCSQSTHVPLTFGGGTKVEIK
2.46 µg/mL and 16.4 nM	603	2.4	0.08	0.51	4650	humanized 6H3 variant 2 (antibody, V domains shown, also called V2; 6H3 V2) VH: EVQLVQSGAEVKKPGASVKVSCKASGYTFTDYYMNWVRQAPGQGLEWIGIINPYNGDTSYNQKFKGRVTLTVDKSTSTAYMELSSLRSEDTAVYYCARYPESTYWGQGTLVTVSS VL: DVVMTQSPLSLPVTLGQPASISCRSSQSLVHINGNTYLHWYQQRPGQSPRVLIYKVSNRFSGVPDRFSGSGSGTDFTLKISRVEAEDVGVYFCSQSTHVPLTFGGGTKVEIK
3.09 µg/mL and 20.6 nM	583	6	0.1	1.19	–	humanized 6H3 variant 3 (antibody, V domains shown, also called V3; H2B L1B) VH: EVQLVQSGAEMKKPGASVKVSCKASGYTFTDYYMNWVRQAPGQSLEWMGVINPYNGDTTYNQKFQGRVTVAVDKSATTAYMELSSLRSEDTAVYYCARYPESTYWGQGTLVTVSS VL: DVVMTQSPLSLPVTLGQPASISCRSSQSLVHINGNTYLHWYQQRPGQSPRVLIYKVSNRFSGVPDRFSGSGSGTDFTLKISRVEAEDVGVYFCSQSTHVPLTFGGGTKVEIK
